To fix the notation:
B1: GST-tagged Sch9 (GST-Sch9) [S. cerevisiae] / HA-tagged wild type Gap1 (HA-Gap1) [S. cerevisiae] (parent complex)
chain 1: MMNFFTSKSSNQDTGFSSQHQHPNGQNNGNNNSSTAGNDNGYPCKLVSSGPCASSNNGALFTNFTLQTATPTTAISQDLYAMGTTGITSENALFQMKSMNNGISSVNNNNSNTPTIITTSQEETNAGNVHGDTGGNSLQNSEDDNFSSSSTTKCLLSSTSSLSINQREAAAAAYGPDTDIPRGKLEVTIIEARDLVTRSKDSQPYVVCTFESSEFISNGPESLGAINNNNNNNNNNQHNQNQHINNNNENTNPDAASQHHNNNSGWNGSQLPSIKEHLKKKPLYTHRSSSQLDQLNSCSSVTDPSKRSSNSSSGSSNGPKNDSSHPIWHHKTTFDVLGSHSELDISVYDAAHDHMFLGQVRLYPMIHNLAHASQHQWHSLKPRVIDEVVSGDILIKWTYKQTKKRHYGPQDFEVLRLLGKGTFGQVYQVKKKDTQRIYAMKVLSKKVIVKKNEIAHTIGERNILVTTASKSSPFIVGLKFSFQTPTDLYLVTDYMSGGELFWHLQKEGRFSEDRAKFYIAELVLALEHLHDNDIVYRDLKPENILLDANGNIALCDFGLSKADLKDRTNTFCGTTEYLAPELLLDETGYTKMVDFWSLGVLIFEMCCGWSPFFAENNQKMYQKIAFGKVKFPRDVLSQEGRSFVKGLLNRNPKHRLGAIDDGRELRAHPFFADIDWEALKQKKIPPPFKPHLVSETDTSNFDPEFTTASTSYMNKHQPMMTATPLSPAMQAKFAGFTFVDESAIDEHVNNNRKFLQNSYFMEPGSFIPGNPNLPPDEDVIDDDGDEDINDGFNQEKNMNNSHSQMDFDGDQHMDDEFVSGRFEI
chain 2: MSNTSSYEKNNPDNLKHNGITIDSEFLTQEPITIPSNGSAVSIDETGSGSKWQDFKDSFKRVKPIEVDPNLSEAEKVAIITAQTPLKHHLKNRHLQMIAIGGAIGTGLLVGSGTALRTGGPASLLIGWGSTGTMIYAMVMALGELAVIFPISGGFTTYATRFIDESFGYANNFNYMLQWLVVLPLEIVSASITVNFWGTDPKYRDGFVALFWLAIVIINMFGVKGYGEAEFVFSFIKVITVVGFIILGIILNCGGGPTGGYIGGKYWHDPGAFAGDTPGAKFKGVCSVFVTAAFSFAGSELVGLAASESVEPRKSVPKAAKQVFWRITLFYILSLLMIGLLVPYNDKSLIGASSVDAAASPFVIAIKTHGIKGLPSVVNVVILIAVLSVGNSAIYACSRTMVALAEQRFLPEIFSYVDRKGRPLVGIAVTSAFGLIAFVAASKKEGEVFNWLLALSGLSSLFTWGGICICHIRFRKALAAQGRGLDELSFKSPTGVWGSYWGLFMVIIMFIAQFYVAVFPVGDSPSAEGFFEAYLSFPLVMVMYIGHKIYKRNWKLFIPAEKMDIDTGRREVDLDLLKQEIAEEKAIMATKPRWYRIWNFWC
B2: GST-tagged Sch9 (GST-Sch9) [S. cerevisiae] / Gap1 peptide 222-GVKGYGEAEFVFSFI-236 [S. cerevisiae] (parent complex)
chain 1: B1 chain 1
chain 2: GVKGYGEAEFVFSFI

In one assay the parent is B1. The experiment in a line: GST pull-down assay; parent: 100.
Take chain 2 F231D: the percent of parent is 98.9 % of Gap1WT.
Same read-out and setting: for chain 2 F231D, chain 2 V232K, chain 2 F233D the value was 102 % of Gap1WT; for chain 2 V232K, 86.9 % of Gap1WT.
The same measure, in the same setting: in the case of chain 2 F233D it was 138 % of Gap1WT.

Another assay covers variants of B2. The experiment in a line: substitution peptide microarray; 100 or 500 µg/ml GST-Sch9; parent: 100; read off a plot.
For chain 2 FVKGYGEAEFVFSFI [chain 2 G1F], the percent of parent was ~140 % of wild type peptide.
Take chain 2 GVKGYGEAEFVFSFE [chain 2 I15E]: the percent of parent is ~150 % of wild type peptide.
Turning to chain 2 GVKGYFEAEFVFSFI [chain 2 G6F], the percent of parent was ~330 % of wild type peptide.
Same read-out and setting: for chain 2 GVKGYGEAEFVFCFI [chain 2 S13C] the value was ~240 % of wild type peptide.

(Values after PMC7850899, “Nutrient transceptors physically interact with the yeast S6/protein kinase B homolog, Sch9, a TOR kinase target” (Biochemical Journal, 2021).)
